Among the data in doi:10.1101/2024.01.14.575554 (bioRxiv, 2024) are Kd values, retold here.

The target of this experiment is T1, Alexa-488 tagged Hsp60α (Sulfolobus acidocaldarius, UniProt Q9V2T5 1-558, Alexa-488 label (site not stated)).
T1 sequence (looked up): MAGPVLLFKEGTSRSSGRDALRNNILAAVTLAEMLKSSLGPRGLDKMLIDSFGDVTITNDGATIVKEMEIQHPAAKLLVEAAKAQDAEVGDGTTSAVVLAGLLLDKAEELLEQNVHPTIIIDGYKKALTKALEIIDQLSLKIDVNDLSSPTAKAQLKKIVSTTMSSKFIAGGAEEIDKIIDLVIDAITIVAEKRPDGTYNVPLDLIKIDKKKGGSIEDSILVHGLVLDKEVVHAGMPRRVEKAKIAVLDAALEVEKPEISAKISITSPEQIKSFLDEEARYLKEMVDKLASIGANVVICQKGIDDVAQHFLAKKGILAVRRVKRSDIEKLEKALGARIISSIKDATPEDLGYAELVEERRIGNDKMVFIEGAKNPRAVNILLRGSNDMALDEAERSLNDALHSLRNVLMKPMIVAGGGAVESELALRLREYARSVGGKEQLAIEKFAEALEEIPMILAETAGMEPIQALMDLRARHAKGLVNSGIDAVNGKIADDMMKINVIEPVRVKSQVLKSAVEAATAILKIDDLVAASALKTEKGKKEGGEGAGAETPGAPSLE
Description: FRET or BRET. For orientation: In BRET a luciferase serves as donor, and the signal depends on an acceptor being close.

As a reminder, the Kd is the equilibrium constant for the complex coming apart. Low values mean tighter binding, high ones weaker binding.

B1: Alexa-532 tagged Hsp60β (natural protein, Sulfolobus acidocaldarius, UniProt Q9V2T4 1-553, looked up)
chain: MSATATVATTPEGIPVIILKEGSSRTYGKEALRINIAAVKAVEEALKTTYGPRGMDKMLVDSLGDITITNDGATILDKMDLQHPAAKLLVQIAKGQDEETADGTKTAVIFSGELVKKAEELLYKEIHPTIIVSGYKKAEEMAIKTIEEISTKVSVNDTEILRKVALTSLSSKAVAGAREHLADIVVKAITQVAELRGDKWYVDLDNVQIVKKHGGSINDTQIVYGIIVDKEVVHPGMPKRVENAKIALLDASLEVEKPELDAEIRINDPTQMKKFLDEEENILKEKVDKIAQTGANVVICQKGIDEVAQHYLAKKGILAVRRAKKSDLEKLARATGGRVVSNIDELTSQDLGYATLVEERKIGEDKMVFIEGAKNPKAVSILIRGGLERVVDETERALRDALGTVADVVRDGRAIAGGGAVETEIAKRLRKYAPQVGGKEQLAIEAYANALESLVMILIENGGFDPIELLVKLRSAHENETNKWHGINVYTGQIQDMWSLGVIEPAVVKMNAIKAATEASTLILRIDDLISAGKKSEGKTGEKKESEKGKEED
modifications: Alexa-532 label (site not stated)
B1: the equilibrium dissociation constant (Kd) worked out at 167 ± 1.7 nM.
